In patent US20180155451A1 (published 2018):

T1: FcγRIIa H (human, UniProt P12318 34-217)
T1 construct: extracellular domain; Soluble extracellular domain with C-terminal His tag, expressed in FreeStyle293 cells; also called FcgRIIa H; 2aH; not shown: C-terminal His tag
T1 sequence (looked up): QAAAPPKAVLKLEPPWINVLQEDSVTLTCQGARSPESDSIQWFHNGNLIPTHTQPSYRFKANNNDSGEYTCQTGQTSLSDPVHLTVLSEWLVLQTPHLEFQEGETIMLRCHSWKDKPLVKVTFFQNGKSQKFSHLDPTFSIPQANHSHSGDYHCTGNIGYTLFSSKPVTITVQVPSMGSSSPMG

T2: FcγRIIb (human, UniProt P31994 43-217)
T2 construct: extracellular domain; Soluble extracellular domain with C-terminal His tag, expressed in FreeStyle293 cells; also called FcgRIIb; 2b; not shown: C-terminal His tag
T2 sequence (looked up): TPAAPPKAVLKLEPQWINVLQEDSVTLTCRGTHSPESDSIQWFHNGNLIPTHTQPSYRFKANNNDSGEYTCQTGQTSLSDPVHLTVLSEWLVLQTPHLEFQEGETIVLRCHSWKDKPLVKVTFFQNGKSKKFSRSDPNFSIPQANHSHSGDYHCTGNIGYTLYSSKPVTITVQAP

B1: GpH7-A5/GpH7-B3 variant P238_06M/GpL16-k0 (antibody, human IgG1, kappa)
heavy 1: not shown
heavy 2: not shown
light: DIVMTQSPLSLPVTPGEPASISCQASESLVHSNRNTYLHWYLQKPGQSPQLLIYKVSNRFSGVPDRFSGSGSGTDFTLKISRVEAEDVGVYYCSQNTHVPPTFGQGTKVEIERTVAAPSVFIFPPSDEQLKSGTASVVCLLNNFYPREAKVQWKVDNALQSGNSQESVTEQDSKDSTYSLSSTLTLSKADYEKHKVYACEVTHQGLSSPVTKSFNRGEC
notes: Heterodimerized anti-glypican-3 IgG1; alteration in the GpH7-B3 chain only; also called He Ab
B2: GpH7-A5/GpH7-B3 variant G237_06M/GpL16-k0 (antibody, human IgG1, kappa)
heavy 1: not shown
heavy 2: not shown
light: B1 light
notes: as for B1
B3: GpH7-A5/GpH7-B3 variant P238_19Q/GpL16-k0 (antibody, human IgG1, kappa)
heavy 1: not shown
heavy 2: not shown
light: B1 light
notes: as for B1
B4: GpH7-A5/GpH7-B3 variant V266_06M/GpL16-k0 (antibody, human IgG1, kappa)
heavy 1: not shown
heavy 2: not shown
light: B1 light
notes: as for B1
B5: GpH7-A5/GpH7-B3 variant P238_20W/GpL16-k0 (antibody, human IgG1, kappa)
heavy 1: not shown
heavy 2: not shown
light: B1 light
notes: as for B1
B6: GpH7-A5/GpH7-B3 variant P238_15Y/GpL16-k0 (antibody, human IgG1, kappa)
heavy 1: not shown
heavy 2: not shown
light: B1 light
notes: as for B1
B7: GpH7-A5/GpH7-B3 variant G236_09D/GpL16-k0 (antibody, human IgG1, kappa)
heavy 1: not shown
heavy 2: not shown
light: B1 light
notes: as for B1
B8: GpH7-A5/GpH7-B3 variant L234_09D/GpL16-k0 (antibody, human IgG1, kappa)
heavy 1: not shown
heavy 2: not shown
light: B1 light
notes: as for B1
B9: GpH7-A5/GpH7-B3 variant P238_14T/GpL16-k0 (antibody, human IgG1, kappa)
heavy 1: not shown
heavy 2: not shown
light: B1 light
notes: as for B1
B10: GpH7-A5/GpH7-B3 variant P238_04F/GpL16-k0 (antibody, human IgG1, kappa)
heavy 1: not shown
heavy 2: not shown
light: B1 light
notes: as for B1
B11: GpH7-A5/GpH7-B3 variant G237_19Q/GpL16-k0 (antibody, human IgG1, kappa)
heavy 1: not shown
heavy 2: not shown
light: B1 light
notes: as for B1
B12: GpH7-A5/GpH7-B3 variant G237_15Y/GpL16-k0 (antibody, human IgG1, kappa)
heavy 1: not shown
heavy 2: not shown
light: B1 light
notes: as for B1
B13: GpH7-A5/GpH7-B3 variant S267_14T/GpL16-k0 (antibody, human IgG1, kappa)
heavy 1: not shown
heavy 2: not shown
light: B1 light
notes: as for B1
B14: GpH7-A5/GpH7-B3 variant S267_08L/GpL16-k0 (antibody, human IgG1, kappa)
heavy 1: not shown
heavy 2: not shown
light: B1 light
notes: as for B1
B15: GpH7-A5/GpH7-B3 variant S267_06M/GpL16-k0 (antibody, human IgG1, kappa)
heavy 1: not shown
heavy 2: not shown
light: B1 light
notes: as for B1
B16: GpH7-A5/GpH7-B3 variant S239_03V/GpL16-k0 (antibody, human IgG1, kappa)
heavy 1: not shown
heavy 2: not shown
light: B1 light
notes: as for B1
B17: GpH7-A5/GpH7-B3 variant G237_16H/GpL16-k0 (antibody, human IgG1, kappa)
heavy 1: not shown
heavy 2: not shown
light: B1 light
notes: as for B1
B18: GpH7-A5/GpH7-B3 variant G237_10E/GpL16-k0 (antibody, human IgG1, kappa)
heavy 1: not shown
heavy 2: not shown
light: B1 light
notes: as for B1
B19: GpH7-A5/GpH7-B3 variant G237_05P/GpL16-k0 (antibody, human IgG1, kappa)
heavy 1: not shown
heavy 2: not shown
light: B1 light
notes: as for B1

molecular target: T1, FcγRIIa H; assay: SPR (Biacore), antibody captured, FcγR as analyte; relative to HeCon Ab
Experimental: (§1) The heterodimerized antibodies He Abs in which one of the H chains was introduced with an alteration were assayed for their binding activities to each activating FcγR and inhibitory FcγR according to the method described in Example 4. […] The activating FcγRs in FIGS. 26, 27, 28, and 29 are FcγRIa, FcγRIIa (R), FcγRIIa (H), and FcγRIIIa, respectively.
(§2) Analysis of interaction between objective antibody and the FcγR was carried out using Biacore T100 (GE Healthcare). HBS-EP+ (GE Healthcare) was used as the running buffer, and the measurement temperature was set to 25° C. Chips produced by immobilizing the antigen peptide by the amine coupling method to a Series S Sencor Chip CM5 (GE Healthcare), or alternatively, chips produced by allowing preliminarily biotinylated antigen peptides to interact with and immobilize onto a Series S Sensor Chip SA (certified) (GE Healthcare) were used. Antibodies of interest were captured onto an antigen peptide-immobilized chip, and allowed to interact to each FcγR diluted with running buffer. To regenerate and repeatedly use the chip, the antibodies captured on the chip were washed off by reacting 10 mM glycine-HCl, pH 1.5.

| He/Con_2aH | Binder |
| --- | --- |
| 47.6 % of GpH7-A5/GpH7-B3/GpL16-k0 (=100) | B1 |
| 17.8 % of GpH7-A5/GpH7-B3/GpL16-k0 (=100) | B2 |
| 56.4 % of GpH7-A5/GpH7-B3/GpL16-k0 (=100) | B3 |
| 83.9 % of GpH7-A5/GpH7-B3/GpL16-k0 (=100) | B4 |
| 59.5 % of GpH7-A5/GpH7-B3/GpL16-k0 (=100) | B5 |
| 59.8 % of GpH7-A5/GpH7-B3/GpL16-k0 (=100) | B6 |
| 89.8 % of GpH7-A5/GpH7-B3/GpL16-k0 (=100) | B7 |
| 89.9 % of GpH7-A5/GpH7-B3/GpL16-k0 (=100) | B8 |
| 37.7 % of GpH7-A5/GpH7-B3/GpL16-k0 (=100) | B9 |
| 65.4 % of GpH7-A5/GpH7-B3/GpL16-k0 (=100) | B10 |
| 26.5 % of GpH7-A5/GpH7-B3/GpL16-k0 (=100) | B11 |
| 25.4 % of GpH7-A5/GpH7-B3/GpL16-k0 (=100) | B12 |
| 63.3 % of GpH7-A5/GpH7-B3/GpL16-k0 (=100) | B13 |
| 29 % of GpH7-A5/GpH7-B3/GpL16-k0 (=100) | B14 |
| 34.3 % of GpH7-A5/GpH7-B3/GpL16-k0 (=100) | B15 |
| 91 % of GpH7-A5/GpH7-B3/GpL16-k0 (=100) | B16 |
| 16.4 % of GpH7-A5/GpH7-B3/GpL16-k0 (=100) | B17 |
| 15.1 % of GpH7-A5/GpH7-B3/GpL16-k0 (=100) | B18 |

molecular target: T2, FcγRIIb; assay: as above
Experimental: as §1, §2

| He/Con_2b | Binder |
| --- | --- |
| 174 % of GpH7-A5/GpH7-B3/GpL16-k0 (=100) | B1 |
| 130 % of GpH7-A5/GpH7-B3/GpL16-k0 (=100) | B2 |
| 110 % of GpH7-A5/GpH7-B3/GpL16-k0 (=100) | B3 |
| 251 % of GpH7-A5/GpH7-B3/GpL16-k0 (=100) | B4 |
| 123 % of GpH7-A5/GpH7-B3/GpL16-k0 (=100) | B5 |
| 218 % of GpH7-A5/GpH7-B3/GpL16-k0 (=100) | B6 |
| 167 % of GpH7-A5/GpH7-B3/GpL16-k0 (=100) | B7 |
| 150 % of GpH7-A5/GpH7-B3/GpL16-k0 (=100) | B8 |
| 50.7 % of GpH7-A5/GpH7-B3/GpL16-k0 (=100) | B9 |
| 312 % of GpH7-A5/GpH7-B3/GpL16-k0 (=100) | B10 |
| 108 % of GpH7-A5/GpH7-B3/GpL16-k0 (=100) | B11 |
| 152 % of GpH7-A5/GpH7-B3/GpL16-k0 (=100) | B12 |
| 104 % of GpH7-A5/GpH7-B3/GpL16-k0 (=100) | B13 |
| 109 % of GpH7-A5/GpH7-B3/GpL16-k0 (=100) | B14 |
| 210 % of GpH7-A5/GpH7-B3/GpL16-k0 (=100) | B15 |
| 108 % of GpH7-A5/GpH7-B3/GpL16-k0 (=100) | B16 |
| 55.2 % of GpH7-A5/GpH7-B3/GpL16-k0 (=100) | B17 |
| 24.6 % of GpH7-A5/GpH7-B3/GpL16-k0 (=100) | B19 |
| 114 % of GpH7-A5/GpH7-B3/GpL16-k0 (=100) | B18 |
